Experimental findings from publication doi:10.1101/524447 (bioRxiv, 2019) are described below.

Non-standard residues stand in square brackets, D forms with d. No end group written: not given here. pY = N[C@@H](Cc1ccc(OP(=O)(O)O)cc1)C(=O)O

Experiment [1] concerns the target T1, Syk tandem SH2 (tSH2) fragment, amino acids 9-264 (UniProt P43405 9-264). In words: SPR.
Experiment [2] deals with T1, Syk tandem SH2 (tSH2) fragment, amino …. In words: thermal shift assay.

B1: pITAM peptide from CD3ε chain, doubly phosphorylated (peptide)
peptide: NPD[pY]EPIRKGQRDL[pY]SGLNQR
As for B1, the IC50 in experiment [1] was determined as 15 µM. Further, in experiment [2], the Kd is 4.2 ± 0.68 µM.

As usually defined, the IC50 is the concentration at which inhibition is half-maximal. High values mean weaker potency, low ones greater potency. By Kd is commonly meant a measure of binding affinity in units of concentration.
